Test results reported in publication PMC12450638 (The Journal of Biological Chemistry, 2025).

Target: T1, β2m of the single-chain construct (Homo sapiens (Human)., UniProt P61769)
T1 construct: β2-microglobulin; In the cryo-EM sample it is the middle part of m3; also called B2m; source: part of the single-chain construct m3
Test: cryo-EM structure; single-chain P2R-linker-β2m-linker-B∗73:01 copurified with Fabs B.1 and B.8; Hepes-buffered saline pH 7.2, about 0.07 mM fluorinated octyl maltoside; 3.1 Å
Settings: both partners purified

T1 sequence (P61769 21-119): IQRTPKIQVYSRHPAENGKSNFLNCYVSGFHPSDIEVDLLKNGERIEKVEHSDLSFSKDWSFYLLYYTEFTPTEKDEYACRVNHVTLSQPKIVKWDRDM

B1: Fab B.1 (Fab, V domains shown)
VH: EVQLVESGGGLVQPGGSLRLSCAASGFNVSYYSIHWVRQAPGKGLEWVASISPYSGSTSYADSVKGRFTISADTSKNTAYLQMNSLRAEDTAVYYCARYSYGNSWSYDPYYGAMDYWGQGTLVTVSS
VL: DIQMTQSPSSLSASVGDRVTITCRASQSVSSAVAWYQQKPGKAPKLLIYSASSLYSGVPSRFSGSRSGTDFTLTISSLQPEDFATYYCQQYYWAPITFGQGTKVEIK
notes: synthetic Fab; model deposited in PDB 8TNJ (constant domain portion not visible in the map)
B1: binds.
